Measured values: publication PMC9452428, “Molecular study on recombinant cold-adapted, detergent- and alkali stable esterase (EstRag) from Lysinibacillus sp.: a member of family VI” (World Journal of Microbiology & Biotechnology, 2022)

Tested on: CC(=O)Oc1ccc([N+](=O)[O-])cc1
Test: purified protein
Settings: 50 mM Tris-HCl pH 8.0, room temperature, substrate 0.0015-3.0 mM

Substance: EstRag (Lysinibacillus sp. YS11)
- Km: 31 µM
- kcat: 20.4 s⁻¹
- kcat/Km: 658000 M⁻¹ s⁻¹
